Results from the supplement of paper PMC12458215.
± gives the uncertainty stated by the source.

System: HEK293T
Test: plasma membrane surface immunostaining intensity (anti-HA, deep receptor scanning) (arbitrary fluorescence units); higher = higher plasma membrane expression

Q: Which “plasma membrane surface immunostaining intensity” value (GPCR class: A) does the source give for “MGHNGSWISPNASEPHNASGAEAAGVNRSALGEFGEAQLYRQFTTTVQVVIFIGSLLGNFMVLWSTCRTTVFKSVTNRFIKNLACSGICASLVCVPFDIILSTSPHCCWWIYTMLFCKVVKFLHKVFCSVTILSFPAIALDRYYSVLYPLERKISDAKSRELVMYIWAHAVVASVPVFAVTNVADIYATSTCTEVWSNSLGHLVYVLVYNITTVIVPVVVVFLFLILIRRALSASQKKKVIIAALRTPQNTISIPYASQREAELHATLLSMVMVFILCSVPYATLVVYQTVLNVPDTSVFLLLTAVWLPKVSLLANPVLFLTVNKSVRKCLIGTLVQLHHRYSRRNVVSTGSGMAEASLEPSIRSGSQLLEMFHIGQQQIFKPTEDEEESEAKYIGSADFQAKEIFSTCLEGEQGPQFAPSAPPLSTVDSVSQVAPAAPVEPETFPDKYSLQFGFGPFELPPQWLSETRNSKKRLLPPLGNTPEELIQTKVPKVGRVERKMSRNNKVSIFPKVDS [GPR176]” here?
A: 6400 ± 100

Q: “MGKENCTTVAEFILLGLSDVPELRVCLFLLFLLIYGVTLLANLGMIALIQVSSRLHTPMYFFLSHLSSVDFCYSSIIVPKMLANIFNKDKAISFLGCMVQFYLFCTCVVTEVFLLAVMAYDRFVAICNPLLYTVTMSWKVRVELASCCYFCGTVCSLIHLCLALRIPFYRSNVINHFFCDLPPVLSLACSDITVNETLLFLVATLNESVTIMIILTSYLLILTTILKMGSAEGRHKAFSTCASHLTAITVFHGTVLSIYCRPSSGNSGDADKVATVFYTVVIPMLNSVIYSLRNKDVKEALRKVMGSKIHS [OR5L1]” was tested. Which “plasma membrane surface immunostaining intensity” value (GPCR class: A (Olfactory)) did it give?
A: 145 ± 28

Q: With “MGKENCTTVAEFILLGLSDVPELRVCLFLLFLLIYGVTLLANLGMTALIQVSSRLHTPVYFFLSHLSFVDFCYSSIIVPKMLANIFNKDKAISFLGCMVQFYLFCTCGVTEVFLLAVMAYDRFVAICNPLLYMVTMSQKLRVELTSCCYFCGTVCSLIHSSLALRILFYRSNVINHFFCDLPPLLSLACSDVTVNETLLFLVATLNESVTIMIILTSYLLILTTILKIHSAESRHKAFSTCASHLTAITVSHGTILYIYCRPSSGNSGDVDKVATVFYTVVIPMLNPLIYSLRNKDVNKALRKVMGSKIHS [OR5L2]” as the sequence, how does the “plasma membrane surface immunostaining intensity” value (GPCR class: A (Olfactory)) read?
A: 140 ± 35

Q: How did the “plasma membrane surface immunostaining intensity” value (GPCR class: A (Olfactory)) turn out when “MGKTKNTSLDAVVTDFILLGLSHPPNLRSLLFLVFFIIYILTQLGNLLILLTMWADPKLCARPMYILLGVLSFLDMWLSSVTVPLLILDFTPSIKAIPFGGCVAQLYFFHFLGSTQCFLYTLMAYDRYLAICQPLRYPVLMNGRLCTVLVAGAWVAGSMHGSIQATLTFRLPYCGPNQVDYFICDIPAVLRLACADTTVNELVTFVDVGVVAASCFMLILLSYANIVNAILKIRTTDGRRRAFSTCGSHLIVVTVYYVPCIFIYLRAGSKDPLDGAAAVFYTVVTPLLNPLIYTLRNQEVKSALKRITAG [OR10G2]” was run?
A: 111 ± 16

Q: With “MGMEGLLQNSTNFVLTGLITHPAFPGLLFAIVFSIFVVAITANLVMILLIHMDSRLHTPMYFLLSQLSIMDTIYICITVPKMLQDLLSKDKTISFLGCAVQIFLYLTLIGGEFFLLGLMAYDRYVAVCNPLRYPLLMNRRVCLFMVVGSWVGGSLDGFMLTPVTMSFPFCRSREINHFFCEIPAVLKLSCTDTSLYETLMYACCVLMLLIPLSVISVSYTHILLTVHRMNSAEGRRKAFATCSSHIMVVSVFYGAAFYTNVLPHSYHTPEKDKVVSAFYTILTPMLNPLIYSLRNKDVAAALRKVLGRCGSSQSIRVATVIRKG [OR2T2]” as the sequence, how does the “plasma membrane surface immunostaining intensity” value (GPCR class: A (Olfactory)) read?
A: 130 ± 17

Q: Which “plasma membrane surface immunostaining intensity” value (GPCR class: A (Olfactory)) does the source give for “MGMEGLLQNSTNFVLTGLITHPAFPGLLFAVVFSIFVVAITANLVMILLIHMDSRLHTPMYFLLSQLSIMDTIYICITVPKMLQDLLSKDKTISFLGCAVQIFYLTLIGGEFFLLGLMAYDRYVAVCNPLRYPLLMNRRVCLFMVVGSWVGGSLDGFMLTPVTMSFPFCRSREINHFFCEIPAVLKLSCTDTSLYETLMYACCVLMLLIPLSVISVSYTHILLTVHRMNSAEGRRKAFATCSSHIMVVSVFYGAAFYTNVLPHSYHTPEKDKVVSAFYTILTPMLNPLIYSLRNKDVAAALRKVLGRCGSSQSIRVATVIRKG [OR2T35]” here?
A: 126 ± 14

Q: For “MGNCLHRAELSPSTENSSQLDFEDVWNSSYGVNDSFPDGDYGANLEAAAPCHSCNLLDDSALPFFILTSVLGILASSTVLFMLFRPLFRWQLCPGWPVLAQLAVGSALFSIVVPVLAPGLGSTRSSALCSLGYCVWYGSAFAQALLLGCHASLGHRLGAGQVPGLTLGLTVGIWGVAALLTLPVTLASGASGGLCTLIYSTELKALQATHTVACLAIFVLLPLGLFGAKGLKKALGMGPGPWMNILWAWFIFWWPHGVVLGLDFLVRSKLLLLSTCLAQQALDLLLNLAEALAILHCVATPLLLALFCHQATRTLLPSLPLPEGWSSHLDTLGSKS [ACKR1]”, which “plasma membrane surface immunostaining intensity” value (GPCR class: A) is on record?
A: 5030 ± 340

Q: With “MGNRSTADADGLLAGRGPAAGASAGASAGLAGQGAAALVGGVLLIGAVLAGNSLVCVSVATERALQTPTNSFIVSLAAADLLLALLVLPLFVYSEVQGGAWLLSPRLCDALMAMDVMLCTASIFNLCAISVDRFVAVAVPLRYNRQGGSRRQLLLIGATWLLSAAVAAPVLCGLNDVRGRDPAVCRLEDRDYVVYSSVCSFFLPCPLMLLLYWATFRGLQRWEVARRAKLHGRAPRRPSGPGPPSPTPPAPRLPQDPCGPDCAPPAPGLPRGPCGPDCAPAAPSLPQDPCGPDCAPPAPGLPPDPCGSNCAPPDAVRAAALPPQTPPQTRRRRRAKITGRERKAMRVLPVVVGAFLLCWTPFFVVHITQALCPACSVPPRLVSAVTWLGYVNSALNPVIYTVFNAEFRNVFRKALRACC [DRD4]” as the sequence, how does the “plasma membrane surface immunostaining intensity” value (GPCR class: A) read?
A: 602 ± 92

Q: “MGNWSTVTEITLIAFPALLEIRISLFVVLVVTYTLTATGNITIISLIWIDHRLQTPMYFFLSNLSFLDILYTTVITPKLLACLLGEEKTISFAGCMIQTYFYFFLGTVEFILLAVMSFDRYMAICDPLHYTVIMNSRACLLLVLGCWVGAFLSVLFPTIVVTRLPYCRKEINHFFCDIAPLLQVACINTHLIEKINFLLSALVILSSLAFTTGSYVYIISTILRIPSTQGRQKAFSTCASHITVVSIAHGSNIFVYVRPNQNSSLDYDKVAAVLITVVTPLLNPFIYSLRNEKVQEVLRETVNRIMTLIQRKT [OR6M1]” was tested. Which “plasma membrane surface immunostaining intensity” value (GPCR class: A (Olfactory)) did it give?
A: 127 ± 27

Q: With “MGNWTAAVTEFVLLGFSLSREVELLLLVLLLPTFLLTLLGNLLIISTVLSCSRLHTPMYFFLCNLSILDILFTSVISPKVLANLGSRDKTISFAGCITQCYFYFFLGTVEFLLLTVMSYDRYATICCPLRYTTIMRPSVCIGTVVFSWVGGFLSVLFPTILISQLPFCGSNIINHFFCDSGPLLALACADTTAIELMDFMLSSMVILCCIVLVAYSYTYIILTIVRIPSASGRKKAFNTCASHLTIVIISSGITVFIYVTPSQKEYLEINKIPLVLSSVVTPFLNPFIYTLRNDTVQGVLRDVWVRVRGVFEKRMRAVLRSRLSSNKDHQGRACSSPPCVYSVKLQC [OR6J1]” as the sequence, how does the “plasma membrane surface immunostaining intensity” value (GPCR class: A (Olfactory)) read?
A: 279 ± 110

Q: Which “plasma membrane surface immunostaining intensity” value (GPCR class: Taste) does the source give for “MGPRAKTISSLFFLLWVLAEPAENSDFYLPGDYLLGGLFSLHANMKGIVHLNFLQVPMCKEYEVKVIGYNLMQAMRFAVEEINNDSSLLPGVLLGYEIVDVCYISNNVQPVLYFLAHEDNLLPIQEDYSNYISRVVAVIGPDNSESVMTVANFLSLFLLPQITYSAISDELRDKVRFPALLRTTPSADHHIEAMVQLMLHFRWNWIIVLVSSDTYGRDNGQLLGERVARRDICIAFQETLPTLQPNQNMTSEERQRLVTIVDKLQQSTARVVVVFSPDLTLYHFFNEVLRQNFTGAVWIASESWAIDPVLHNLTELRHLGTFLGITIQSVPIPGFSEFREWGPQAGPPPLSRTSQSYTCNQECDNCLNATLSFNTILRLSGERVVYSVYSAVYAVAHALHSLLGCDKSTCTKRVVYPWQLLEEIWKVNFTLLDHQIFFDPQGDVALHLEIVQWQWDRSQNPFQSVASYYPLQRQLKNIQDISWHTINNTIPMSMCSKRCQSGQKKKPVGIHVCCFECIDCLPGTFLNHTEDEYECQACPNNEWSYQSETSCFKRQLVFLEWHEAPTIAVALLAALGFLSTLAILVIFWRHFQTPIVRSAGGPMCFLMLTLLLVAYMVVPVYVGPPKVSTCLCRQALFPLCFTICISCIAVRSFQIVCAFKMASRFPRAYSYWVRYQGPYVSMAFITVLKMVIVVIGMLATGLSPTTRTDPDDPKITIVSCNPNYRNSLLFNTSLDLLLSVVGFSFAYMGKELPTNYNEAKFITLSMTFYFTSSVSLCTFMSAYSGVLVTIVDLLVTVLNLLAISLGYFGPKCYMILFYPERNTPAYFNSMIQGYTMRRD [TAS1R2]” here?
A: 229 ± 23

Q: How did the “plasma membrane surface immunostaining intensity” value (GPCR class: A (Olfactory)) turn out when “MGRWVNQSYTDGFFLLGIFSHSQTDLVLFSAVMVVFTVALCGNVLLIFLIYLDAGLHTPMYFFLSQLSLMDLMLVCNIVPKMAANFLSGRKSISFVGCGIQIGFFVSLVGSEGLLLGLMAYDRYVAVSHPLHYPILMNQRVCLQITGSSWAFGIIDGVIQMVAAMGLPYCGSRSVDHFFCEVQALLKLACADTSLFDTLLFACCVFMLLLPFSIIMASYACILGAVLRIRSAQAWKKALATCSSHLTAVTLFYGAAMFMYLRPRRYRAPSHDKVASIFYTVLTPMLNPLIYSLRNGEVMGALRKGLDRCRIGSQH [OR2V1]” was run?
A: 153 ± 28

Q: With “MGSFNTSFEDGFILVGFSDWPQLEPILFVFIFIFYSLTLFGNTIIIALSWLDLRLHTPMYFFLSHLSLLDLCFTTSTVPQLLINLCGVDRTITRGGCVAQLFIYLALGSTECVLLVVMAFDRYAAVCRPLHYMAIMHPHLCQTLAIASWGAGFVNSLIQTGLAMAMPLCGHRLNHFFCEMPVFLKLACADTEGTEAKMFVARVIVVAVPAALILGSYVHIAHAVLRVKSTAGRRKAFGTCGSHLLVVFLFYGSAIYTYLQSIHNYSEREGKFVALFYTIITPILNPLIYTLRNKDVKGALWKVLWRGRDSG [OR2Y1]” as the sequence, how does the “plasma membrane surface immunostaining intensity” value (GPCR class: A (Olfactory)) read?
A: 132 ± 17

Q: How did the “plasma membrane surface immunostaining intensity” value (GPCR class: B) turn out when “MGTARIAPGLALLLCCPVLSSAYALVDADDVMTKEEQIFLLHRAQAQCEKRLKEVLQRPASIMESDKGWTSASTSGKPRKDKASGKLYPESEEDKEAPTGSRYRGRPCLPEWDHILCWPLGAPGEVVAVPCPDYIYDFNHKGHAYRRCDRNGSWELVPGHNRTWANYSECVKFLTNETREREVFDRLGMIYTVGYSVSLASLTVAVLILAYFRRLHCTRNYIHMHLFLSFMLRAVSIFVKDAVLYSGATLDEAERLTEEELRAIAQAPPPPATAAAGYAGCRVAVTFFLYFLATNYYWILVEGLYLHSLIFMAFFSEKKYLWGFTVFGWGLPAVFVAVWVSVRATLANTGCWDLSSGNKKWIIQVPILASIVLNFILFINIVRVLATKLRETNAGRCDTRQQYRKLLKSTLVLMPLFGVHYIVFMATPYTEVSGTLWQVQMHYEMLFNSFQGFFVAIIYCFCNGEVQAEIKKSWSRWTLALDFKRKARSGSSSYSYGPMVSHTSVTNVGPRVGLGLPLSPRLLPTATTNGHPQLPGHAKPGTPALETLETTPPAMAAPKDDGFLNGSCSGLDEEASGPERPPALLQEEWETVM [PTH1R]” was run?
A: 770 ± 69

Q: “MGTCDIVTEANISSGPESNTTGITAFSMPSWQLALWATAYLALVLVAVTGNAIVIWIILAHRRMRTVTNYFIVNLALADLCMAAFNAAFNFVYASHNIWYFGRAFCYFQNLFPITAMFVSIYSMTAIAADRYMAIVHPFQPRLSAPSTKAVIAGIWLVALALASPQCFYSTVTMDQGATKCVVAWPEDSGGKTLLLYHLVVIALIYFLPLAVMFVAYSVIGLTLWRRAVPGHQAHGANLRHLQAMKKFVKTMVLVVLTFAICWLPYHLYFILGSFQEDIYCHKFIQQVYLALFWLAMSSTMYNPIIYCCLNHRFRSGFRLAFRCCPWVTPTKEDKLELTPTTSLSTRVNRCHTKETLFMAGDTAPSEATSGEAGRPQDGSGLWFGYGLLAPTKTHVEI [TACR2]” was tested. Which “plasma membrane surface immunostaining intensity” value (GPCR class: A) did it give?
A: 474 ± 41
